Results on nine molecules are retold here after US20210269539A1 (NANJING UMAB BIOPHARMA, published 2021).

Experiment [1] addresses T1, human OX40 on cells (human, UniProt P43489 29-277).
T1 sequence (looked up): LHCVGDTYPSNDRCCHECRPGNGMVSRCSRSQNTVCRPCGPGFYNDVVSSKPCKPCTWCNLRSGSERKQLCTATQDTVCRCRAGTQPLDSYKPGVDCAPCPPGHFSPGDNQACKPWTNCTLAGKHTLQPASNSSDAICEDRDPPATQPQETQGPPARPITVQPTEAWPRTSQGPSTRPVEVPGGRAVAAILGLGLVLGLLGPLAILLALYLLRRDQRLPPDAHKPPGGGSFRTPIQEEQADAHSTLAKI
The experiment can be described thus: cell-based or functional assay.

Experiment [2] addresses T2, human OX40 protein (human, UniProt P43489 29-214, limits assumed).
T2 construct: also called human OX antigen protein
T2 sequence (looked up): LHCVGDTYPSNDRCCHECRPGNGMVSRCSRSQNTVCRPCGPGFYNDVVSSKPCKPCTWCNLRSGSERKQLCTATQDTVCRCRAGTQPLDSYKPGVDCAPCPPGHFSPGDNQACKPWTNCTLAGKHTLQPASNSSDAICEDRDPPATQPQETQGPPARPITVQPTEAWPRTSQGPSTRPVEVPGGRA
The experiment can be described thus: ELISA as in Example 3, human OX40 protein coated. How it is done:
(§1) The next day, it was washed three times with 300 μL PBST (Tween 20: 0.5‰), then blocked with 5% BSA/PBS at 100 μL/well for 2 hours, and shaken at room temperature. After washing 3 times with 300 μL PBST, the gradient dilutions of samples were prepared with PBS, which were added into the 96-well plate at 100 μL/well and shaken at room temperature for 1 hour, and washed 3 times with 300 μL PBST. The secondary antibody goat anti-human IgG HRP solution was prepared, which was added into the 96-well plate at 100 μL/well, and shaken at room temperature for 1 hour. After washing 4 times with 300 μL PBST, TMB was added at 100 μL/well and developed for 20 min. 0.6N H₂SO4 was added at 100 μL/well to stop the development, and OD450 nm was measured.
The in vitro binding assay of humanized antibodies and human OX antigen protein was carried out as described in Example 3.
For orientation: An ELISA detects its analyte on a solid surface through an enzyme-linked reagent.

The target of experiment [3] is T1, human OX40 on cells. The experiment can be described thus: FACS on CHO-hOX40 cells. The method, then:
The OX40 antibody gradient was created with PBS, and a stock solution of 10× final concentration was prepared. CHO-hOX40 cells were collected, washed once with PBS, counted, and diluted to a cell suspension of 2×10⁶ cells/ml. 10 μl of OX40 antibody stock solutions were added into 100 μl of cell suspension, and incubated at 4° C. in the dark for 30 min. After washing twice with PBS, a secondary antibody was added and an incubation was carried out at 4° C. for 30 min in the dark. After washing once with PBS, the cells were suspended in 400 μl FACS buffer and measured on the instrument.

Experiment [4] has as its target T3, mouse OX40 on CHO cells (mouse, UniProt P47741 20-272).
T3 construct: whole, on cells; also called CHO-mOX40
T3 sequence (looked up): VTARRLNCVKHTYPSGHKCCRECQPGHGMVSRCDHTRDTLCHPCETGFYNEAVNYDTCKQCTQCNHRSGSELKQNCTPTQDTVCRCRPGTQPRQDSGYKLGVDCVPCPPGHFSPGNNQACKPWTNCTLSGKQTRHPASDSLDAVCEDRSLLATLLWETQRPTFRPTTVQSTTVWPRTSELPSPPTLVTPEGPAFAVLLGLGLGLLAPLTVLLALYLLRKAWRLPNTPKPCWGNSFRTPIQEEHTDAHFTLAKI
Kind of experiment: FACS on CHO cells expressing mouse OX40.

The target of experiment [5] is T2, human OX40 protein. Kind of experiment: ELISA, protein coated at 1 µg/mL, goat anti-human IgG HRP. How it is done:
as §1

Values joined by “and” are separate entries in the source; they are usually repeats but may differ in a detail not shown here. Equal values may be shown once.

B1: MT01-L1(M1) (antibody, human IgG1, kappa, V domains shown)
VH: EVQLQQSGPELVKPGASVKMSCKASGYTFTSYVMHWLKQKPGQGLEWIGYINPYNDATKYNEKFKGKAKLTSDKSSSTAYMELSSLTSEDSAVYYCANYYGSKFAMDYWGQGTSVTVSS
VL: DIQMTQTTSSLSASLGDRVTISCRASQDISNYLSWYQRKPDGAVKLLIYYTSRLHSGVPSRFSGSGSGADYSLTISNLEQEDIATYFCQQGITLPWTFGGGTKLEIKR
For B1, the “EC50 for activation of the NFκB-luciferase reporter gene” value (from here on “EC50 for activation”) in experiment [1] amounted to 64.5 ng/mL.

B2: MT01-L1(M1/M2) (antibody, human IgG1, kappa, V domains shown)
VH: EVQLQQSGPELVKPGASVKMSCKASGYTFTSYVMHWLKQKPGQGLEWIGYINPYNDATKYNEKFKGKAKLTSDKSSSTAYMELSSLTSEDSAVYYCANYYGSKFAMDYWGQGTSVTVSS
VL: DIQMTQTTSSLSASLGDRVTISCRASQDISNYLSWYQRKPDGAVKLLIYYTSRLHSGVPSRFSGSGSGADYSLTISNLEQEDIATYFCQQGITLPFTFGGGTKLEIKR
In the case of B2, the “EC50 for activation” value in experiment [1] was 128 ng/mL.

B3: MT01-L1(M2) (antibody, human IgG1, kappa, V domains shown)
VH: EVQLQQSGPELVKPGASVKMSCKASGYTFTSYVMHWLKQKPGQGLEWIGYINPYNDGTKYNEKFKGKAKLTSDKSSSTAYMELSSLTSEDSAVYYCANYYGSKFAMDYWGQGTSVTVSS
VL: DIQMTQTTSSLSASLGDRVTISCRASQDISNYLSWYQRKPDGAVKLLIYYTSRLHSGVPSRFSGSGSGADYSLTISNLEQEDIATYFCQQGITLPFTFGGGTKLEIKR
B3: in experiment [1], the “EC50 for activation” value turned out to be 60 ng/mL.

B4: MT01-C1 (antibody, human IgG1, kappa)
heavy: not shown
light: DIQMTQSPSSVSASVGDRVTITCRASQDISNYLSWYQQKPGGAVKLLIYYTSRLHSGVPSRFSGSGSGTDYTLTISSLQPEDFATYFCQQGITLPWTFGQGTKVEIKRTVAAPSVFIFPPSDEQLKSGTASVVCLLNNFYPREAKVQWKVDNALQSGNSQESVTEQDSKDSTYSLSSTLTLSKADYEKHKVYACEVTHQGLSSPVTKSFNRGEC
notes: also called humanized monoclonal antibody MT01-C1
Regarding B4, the “EC50 of activation on a cell line transfected stably by Jurkat-OX40-NFκB-luciferase reporter” value in experiment [1] turned out to be 0.028 µg/mL. Moreover, the EC50 in experiment [2] came to 0.345 µg/mL.

B5: MT01-C1(G2) (antibody, human IgG2, kappa)
heavy: EVQLVQSGAEVKKPGESLKISCKASGYTFTSYVMHWLRQMPGKGLEWMGYINPYNDGTKYNEKFKGQVTISSDKSISTAYLQWSSLKASDTAMYYCANYYGSKFAMDYWGQGTMVTVSSASTKGPSVFPLAPCSRSTSESTAALGCLVKDYFPEPVTVSWNSGALTSGVHTFPAVLQSSGLYSLSSVVTVPSSNFGTQTYTCNVDHKPSNTKVDKTVERKCCVECPPCPAPPVAGPSVFLFPPKPKDTLMISRTPEVTCVVVDVSHEDPEVQFNWYVDGVEVHNAKTKPREEQFNSTFRVVSVLTVVHQDWLNGKEYKCKVSNKGLPAPIEKTISKTKGQPREPQVYTLPPSREEMTKNQVSLTCLVKGFYPSDIAVEWESNGQPENNYKTTPPMLDSDGSFFLYSKLTVDKSRWQQGNVFSCSVMHEALHNHYTQKSLSLSPGK
light: DIQMTQSPSSVSASVGDRVTITCRASQDISNYLSWYQQKPGGAVKLLIYYTSRLHSGVPSRFSGSGSGTDYTLTISSLQPEDFATYFCQQGITLPWTFGQGTKVEIKRTVAAPSVFIFPPSDEQLKSGTASVVCLLNNFYPREAKVQWKVDNALQSGNSQESVTEQDSKDSTYSLSSTLTLSKADYEKHKVYACEVTHQGLSSPVTKSFNRGEC
Consider B5, for which the “EC50 of activation on a cell line transfected stably by Jurkat-OX40-NFκB-luciferase reporter” value in experiment [1] stood at 0.0434 µg/mL. This molecule also gave a concentration giving a half-maximal response (EC50) in experiment [2] of 0.39 µg/mL.

B6: MT01-L1 (antibody, human IgG1, kappa)
heavy: not shown
light: DIQMTQTTSSLSASLGDRVTISCRASQDISNYLSWYQRKPDGAVKLLIYYTSRLHSGVPSRFSGSGSGADYSLTISNLEQEDIATYFCQQGITLPWTFGGGTKLEIKRTVAAPSVFIFPPSDEQLKSGTASVVCLLNNFYPREAKVQWKVDNALQSGNSQESVTEQDSKDSTYSLSSTLTLSKADYEKHKVYACEVTHQGLSSPVTKSFNRGEC
notes: also called human-mouse chimeric monoclonal antibody MT01-L1
B6: in experiment [1], the “EC50 for activation” value is 39.1 ng/mL and 57.4 ng/mL; the “IC50 of inhibition of the OX40L-induced activation of NFkB signaling pathway in Jurkat cells” value came out at 0.686 µg/mL. The molecule also returned an EC50 in experiment [3] of 1.22 µg/mL. In addition, in experiment [4], the binding result is recorded as “no binding”. The molecule also gave a half-maximal effective concentration (EC50) in experiment [5] of 0.291 µg/mL.

B7: MT01-L1(G2) (antibody, human IgG2, kappa)
heavy: EVQLQQSGPELVKPGASVKMSCKASGYTFTSYVMHWLKQKPGQGLEWIGYINPYNDGTKYNEKFKGKAKLTSDKSSSTAYMELSSLTSEDSAVYYCANYYGSKFAMDYWGQGTSVTVSSASTKGPSVFPLAPCSRSTSESTAALGCLVKDYFPEPVTVSWNSGALTSGVHTFPAVLQSSGLYSLSSVVTVPSSNFGTQTYTCNVDHKPSNTKVDKTVERKCCVECPPCPAPPVAGPSVFLFPPKPKDTLMISRTPEVTCVVVDVSHEDPEVQFNWYVDGVEVHNAKTKPREEQFNSTFRVVSVLTVVHQDWLNGKEYKCKVSNKGLPAPIEKTISKTKGQPREPQVYTLPPSREEMTKNQVSLTCLVKGFYPSDIAVEWESNGQPENNYKTTPPMLDSDGSFFLYSKLTVDKSRWQQGNVFSCSVMHEALHNHYTQKSLSLSPGK
light: DIQMTQTTSSLSASLGDRVTISCRASQDISNYLSWYQRKPDGAVKLLIYYTSRLHSGVPSRFSGSGSGADYSLTISNLEQEDIATYFCQQGITLPWTFGGGTKLEIKRTVAAPSVFIFPPSDEQLKSGTASVVCLLNNFYPREAKVQWKVDNALQSGNSQESVTEQDSKDSTYSLSSTLTLSKADYEKHKVYACEVTHQGLSSPVTKSFNRGEC
As for B7, the “EC50 for activation” value in experiment [1] was determined as 14.9 ng/mL.

B8: MT01-L2 (antibody, human IgG1, lambda)
heavy: not shown
light: QLVLTQSSSASFSLGASAKLTCTLSSQHSTYIIEWYQQQPLKPPKYVMELKKDGSHSTGEGIPDRFSGSSSGADRYLSISNIQPEDEAIYICGVGNTIKEQFVYVFGGGTKVTVLGQPKANPTVTLFPPSSEELQANKATLVCLISDFYPGAVTVAWKADGSPVKAGVETTKPSKQSNNKYAASSYLSLTPEQWKSHRSYSCQVTHEGSTVEKTVAPTECS
notes: also called human-mouse chimeric monoclonal antibody MT01-L2
For B8, the “EC50 for activation” value in experiment [1] was 84.1 ng/mL. Also, the “IC50 of inhibition of the OX40L-induced activation of NFkB signaling pathway in Jurkat cells” value in experiment [1] turned out to be 1.59 µg/mL. Besides, the EC50 is 2.42 µg/mL in experiment [3] and 0.208 µg/mL in experiment [5]. In addition, the binding result in experiment [4] is reported as “no binding”.

B9: MT01-L2(G2) (antibody, human IgG2, lambda)
heavy: EVQLVESGGGLVQPKGSLSLSCAASGFTFNTYAMNWVRQAPGKGLEWVARIRSKSNNYATYYADSVKDRFTISRDDSQSMLYLQMTNLKTEDTAMYHCVRSLGRAFVYWGQGTLVTVSSASTKGPSVFPLAPCSRSTSESTAALGCLVKDYFPEPVTVSWNSGALTSGVHTFPAVLQSSGLYSLSSVVTVPSSNFGTQTYTCNVDHKPSNTKVDKTVERKCCVECPPCPAPPVAGPSVFLFPPKPKDTLMISRTPEVTCVVVDVSHEDPEVQFNWYVDGVEVHNAKTKPREEQFNSTFRVVSVLTVVHQDWLNGKEYKCKVSNKGLPAPIEKTISKTKGQPREPQVYTLPPSREEMTKNQVSLTCLVKGFYPSDIAVEWESNGQPENNYKTTPPMLDSDGSFFLYSKLTVDKSRWQQGNVFSCSVMHEALHNHYTQKSLSLSPGK
light: QLVLTQSSSASFSLGASAKLTCTLSSQHSTYIIEWYQQQPLKPPKYVMELKKDGSHSTGEGIPDRFSGSSSGADRYLSISNIQPEDEAIYICGVGNTIKEQFVYVFGGGTKVTVLGQPKANPTVTLFPPSSEELQANKATLVCLISDFYPGAVTVAWKADGSPVKAGVETTKPSKQSNNKYAASSYLSLTPEQWKSHRSYSCQVTHEGSTVEKTVAPTECS
As for B9, the “EC50 for activation” value in experiment [1] came out at 118 ng/mL.

Broadly, the EC50 is the concentration at which the effect is half-maximal.
